# Values of other authors in publication PMC10178479.
# Target: Mint2 (Homo sapiens) (UniProt Q99767)
# Chain of UniProt Q99767 (Q99767 whole entry): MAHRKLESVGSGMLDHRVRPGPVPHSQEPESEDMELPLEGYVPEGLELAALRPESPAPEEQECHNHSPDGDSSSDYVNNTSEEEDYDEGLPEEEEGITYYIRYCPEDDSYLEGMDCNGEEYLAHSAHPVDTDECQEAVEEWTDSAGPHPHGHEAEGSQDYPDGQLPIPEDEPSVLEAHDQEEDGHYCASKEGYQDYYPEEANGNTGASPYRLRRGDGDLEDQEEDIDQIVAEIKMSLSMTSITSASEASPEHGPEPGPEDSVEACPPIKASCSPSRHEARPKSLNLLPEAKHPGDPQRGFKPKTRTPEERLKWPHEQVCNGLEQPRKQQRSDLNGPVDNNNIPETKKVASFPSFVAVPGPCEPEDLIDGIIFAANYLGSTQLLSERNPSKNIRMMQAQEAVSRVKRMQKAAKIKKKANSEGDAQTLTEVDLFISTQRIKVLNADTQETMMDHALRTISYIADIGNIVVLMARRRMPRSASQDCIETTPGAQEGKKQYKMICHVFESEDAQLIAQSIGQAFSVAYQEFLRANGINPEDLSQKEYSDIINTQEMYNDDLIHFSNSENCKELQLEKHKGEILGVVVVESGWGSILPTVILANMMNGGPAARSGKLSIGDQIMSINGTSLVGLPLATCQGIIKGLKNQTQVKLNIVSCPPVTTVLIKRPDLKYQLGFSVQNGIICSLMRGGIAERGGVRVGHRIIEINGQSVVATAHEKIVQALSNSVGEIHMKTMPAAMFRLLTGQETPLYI
substance,measurement,value
APP peptide (APPWT),Ki,4 µM
